Experiment [1] concerns the target T1, human THAP1 (THanatos (death)-Associated Protein-1), full length (human, UniProt Q9NVV9 1-213).
T1 construct: also called hTHAP1; FLJ10477
T1 sequence: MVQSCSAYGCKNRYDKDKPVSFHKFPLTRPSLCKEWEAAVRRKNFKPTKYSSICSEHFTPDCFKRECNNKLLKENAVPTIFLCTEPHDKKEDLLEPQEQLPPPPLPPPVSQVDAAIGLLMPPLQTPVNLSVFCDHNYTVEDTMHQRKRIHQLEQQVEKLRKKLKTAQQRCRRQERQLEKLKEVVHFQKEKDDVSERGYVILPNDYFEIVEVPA
The experiment is described as follows: yeast two-hybrid, BD7-THAP1 with AD7-SLC/CCL21ΔCOOH; identical results in the opposite orientation. The text has this: For two-hybrid assays, yeast cells were cotransformed with BD7-THAP1 and AD7-SLC/CCL21 or AD7-SLC/CCL21ΔCOOH expression vectors. AD7-SLC/CCL21 or AD7-SLC/CCL21ΔCOOH expression vectors were generated by subcloning BamHI fragment (encoding SLC amino acids 24-134) or BamHI-PstI fragment (encoding SLC amino acids 24-102) from pGKT7-SLC/CCL21 (see example 15) into pGADT7 expression vector (Clontech). Transformants were selected on media lacking histidine and adenine. […] Identical results were obtained by cotransformation of AD7-THAP1 with BD7-SLC/CCL21 or BD7-SLC/CCL21ΔCOOH.

Experiment [2] has as its target T2, Par4 leucine zipper/death domain (Par4DD, amino acids 250-342) (human, UniProt Q96IZ0 248-340).
T2 construct: also called myc-Par4DD; mycPar4DD
T2 chain: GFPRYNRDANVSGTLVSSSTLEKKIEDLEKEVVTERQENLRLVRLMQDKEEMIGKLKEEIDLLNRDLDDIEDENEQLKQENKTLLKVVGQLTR
Description: yeast two-hybrid. As for the experimental part: Two-hybrid interaction between THAP1 mutants and Par4DD was tested by cotransformation of AH109 with pGBKT7-THAP1-C1, -C2, -C3, -N1, -N2 or -N3 and pGADT7-Par4DD and selection of transformants by His and Ade double auxotrophy according to manufacturer's instructions ([…] two-hybrid system 3, Clontech).
for mutant THAP1ΔQRCRR. The resulting PCR fragments were digested with EcoRI and BamHI, and cloned in frame downstream of the Gal4 Binding Domain (Gal4-BD) in pGBKT7 two-hybrid vector (Clontech) to generate pGBKT7-THAP1-RR/AA and −Δ(QRCRR), or downstream of the Enhanced Green Fluorescent Protein (EGFP) ORF in pEGFP.C2 vector (Clontech) to generate pEGFP.C2-THAP1-RR/AA and −Δ(QRCRR). THAP1 RR/AA and THAP1ΔQRCRR THAP1 mutants were then tested in the three THAP1/Par4 interaction assays (two-hybrid assay, in vitro THAP1/Par4 interaction assay, in vivo THAP1/Par4 interaction assay) as described above for the THAP1-C1, -C2, -C3, -N1, -N2 or -N3 mutants.

The target in experiment [3] is T3, GST-Par4DD fusion protein (pGEX-2T-Par4DD, Par4 amino acids 250-342) (human, UniProt Q96IZ0 248-340).
T3 construct: Expressed in E. coli DH5alpha and immobilized on glutathione sepharose; not shown: Glutathione S-transferase (GST) encoded by the pGEX-2T prokaryotic expression vector (Amersham Pharmacia Biotech); N-ter
T3 chain: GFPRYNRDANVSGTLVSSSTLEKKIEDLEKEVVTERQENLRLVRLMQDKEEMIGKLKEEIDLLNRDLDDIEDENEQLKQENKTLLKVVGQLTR
The experiment is described as follows: in vitro THAP1/Par4 interaction assay (GST pull-down with GST-Par4DD). Here is the method:
THAP1 mutants were also tested in the in vitro THAP1/Par4 interaction assay. In vitro-translated THAP1 mutants were generated with the TNT-coupled reticulocyte lysate system (Promega, Madison, Wis., USA) using pGBKT7-THAP1-C1, -C2, -C3, -N1, -N2 or -N3 vector as template. 25 μl of each ³⁵S-labelled THAP1 mutant was incubated with immobilized GST or GST-Par4 protein overnight at 4° C., in the following binding buffer: 10 mM NaPO4 pH 8.0, 140 mM NaCl, 3 mM MgCl2, 1 mM dithiothreitol (DTT), 0.05% NP40, and 0.2 mM phenylmethyl sulphonyl fluoride (PMSF), 1 mM Na Vanadate, 50 mM β Glycerophosphate, 25 μg/ml chimotrypsine, 5 μg/ml aprotinin, 10 μg/ml Leupeptin. Beads were then washed 5 times in 1 ml binding buffer. Bound proteins were eluted with 2×Laemmli SDS-PAGE sample buffer, fractionated by 10% SDS-PAGE and visualized by fluorography using Amplify (Amersham Pharmacia Biotech). As expected, THAP1-C1, -C2, -C3, -and -N3 interacted with GST/Par4DD (FIG. 4B).
for mutant THAP1ΔQRCRR. The resulting PCR fragments were digested with EcoRI and BamHI, and cloned in frame downstream of the Gal4 Binding Domain (Gal4-BD) in pGBKT7 two-hybrid vector (Clontech) to generate pGBKT7-THAP1-RR/AA and −Δ(QRCRR), or downstream of the Enhanced Green Fluorescent Protein (EGFP) ORF in pEGFP.C2 vector (Clontech) to generate pEGFP.C2-THAP1-RR/AA and −Δ(QRCRR). […]

Experiment [4] has as its target T4, human THAP3 (human, UniProt Q8WTV1 1-239, limits assumed).
T4 construct: also called hTHAP3
T4 sequence: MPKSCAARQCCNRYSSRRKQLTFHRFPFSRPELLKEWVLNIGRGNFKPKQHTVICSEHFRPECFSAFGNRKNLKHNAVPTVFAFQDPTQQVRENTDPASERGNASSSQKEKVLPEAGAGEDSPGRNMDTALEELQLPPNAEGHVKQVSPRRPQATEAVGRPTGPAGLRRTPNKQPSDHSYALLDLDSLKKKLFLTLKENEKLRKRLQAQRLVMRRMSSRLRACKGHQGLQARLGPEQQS
Description: yeast two-hybrid using Par-4 wild type bait (FIG. 10B).

For experiment [5], the target named is T5, human THAP2 (human, UniProt Q9H0W7 1-228, limits assumed).
T5 construct: also called hTHAP2
The experiment is described as above.

Experiment [6] addresses T1, human THAP1 (THanatos …). The experiment is described as follows: yeast two-hybrid, both orientations (His/Ade selection). The text has this:
We then examined whether the leucine zipper/death domain at the C-terminus of Par4, previously shown to be involved in Par4 binding to WT-1 and aPKC, was required for the interaction between THAP1 and Par4. Two Par4 mutants were constructed for that purpose, Par4A and Par4DD. Par4A lacks the leucine zipper/death domain while Par4DD contains this domain. pGBKT7-Par4A(amino acids 1-276) and pGADT7-Par4A. were constructed by sub-cloning a EcoRI-BglII fragment from pGADT7-Par4 into the EcoRI and BamHI sites of pGBKT7 and pGADT7. Par4DD (amino acids 250-342) was amplified by PCR, using pGBKT7-Par4 as template, with primers Par4.4 (5′-[…]-3′) (SEQ ID NO: 193) and Par4.5, and cloned into the EcoRI and BamHI sites of pGBKT7 and pGADT7 to obtain pGBKT7-Par4DD and pGADT7-Par4DD. Two-hybrid interaction between THAP1 and Par4 mutants was tested by cotransformation of AH109 with pGBKT7-THAP1 and pGADT7-Par4A or pGADT7-Par4DD and selection of transformants by His and Ade double auxotrophy according to manufacturer's instructions ([…] two-hybrid system 3, Clontech). […] Similar results were obtained when two-hybrid experiments were performed in the opposite orientation using Par4 or Par4 mutants (Par4A and Par4DD) as baits instead of THAP1 (FIG. 3A).

This is an account of results in patent US20040224408A1, “THAP proteins as nuclear receptors for chemokines and roles in transcriptional regulation, cell proliferation and cell differentiation” (published 2004).

T5 sequence (Q9H0W7 whole entry): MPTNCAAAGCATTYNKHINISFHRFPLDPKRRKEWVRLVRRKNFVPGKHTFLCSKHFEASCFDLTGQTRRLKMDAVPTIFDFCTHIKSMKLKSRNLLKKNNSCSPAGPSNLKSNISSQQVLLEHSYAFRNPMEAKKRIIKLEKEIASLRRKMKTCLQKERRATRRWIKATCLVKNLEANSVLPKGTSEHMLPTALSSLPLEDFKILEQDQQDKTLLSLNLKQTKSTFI

B1: SLC/CCL21ΔCOOH deletion mutant lacking the basic carboxy-terminal extension (ligand)
chain: SDGGAQDCCLKYSQRKIPAKVVRSYRKQEPSLGCSIPAILFLPRKRSQAELCADPKELWVQQLMQHLDKTPSPQKPAQG
notes: Tested as a Gal4-AD or Gal4-BD fusion and as in vitro translated protein; also called SLC/CCL21?COOH
For B1, the binding result in experiment [1] is “binds”.

B2: THAP1 RR/AA mutant (R171A, R172A) (other)
chain: MVQSCSAYGCKNRYDKDKPVSFHKFPLTRPSLCKEWEAAVRRKNFKPTKYSSICSEHFTPDCFKRECNNKLLKENAVPTIFLCTEPHDKKEDLLEPQEQLPPPPLPPPVSQVDAAIGLLMPPLQTPVNLSVFCDHNYTVEDTMHQRKRIHQLEQQVEKLRKKLKTAQQRCAAQERQLEKLKEVVHFQKEKDDVSERGYVILPNDYFEIVEVPA
notes: Tested as a Gal4-BD fusion (pGBKT7), as in vitro translated protein and as an EGFP fusion; also called THAP RR/AA
B2: the binding result in experiment [2] and in experiment [3] was “no binding” throughout.

B3: human prostate apoptosis response-4 protein (PAR4), full length (other)
chain: MATGGYRTSSGLGGSTTDFLEEWKAKREKMRAKQNPPGPAPPGGGSSDAAGKPPAGALGTPAAAAANELNNNLPGGAPAAPAVPGPGGVNCAVGSAMLTRAPPARGPRRSEDEPPAASASAAPPPQRDEEEPDGVPEKGKSSGPSARKGKGQIEKRKLREKRRSTGVVNIPAAECLDEYEDDEAGQKERKREDAITQQNTIQNEAVNLLDPGSSYLLQEPPRTVSGRYKSTTSVSEEDVSSRYSRTDRSGFPRYNRDANVSGTLVSSSTLEKKIEDLEKEVVTERQENLRLVRLMQDKEEMIGKLKEEIDLLNRDLDDIEDENEQLKQENKTLLKVVGQLTR
notes: Tested as a Gal4-BD (pGBKT7-Par4) or Gal4-AD (pGADT7-Par4) fusion in yeast two-hybrid; also called Par4 wild type
As to B3, the binding result in experiment [4], in experiment [5] and in experiment [6] was “binds” each time.
